Test results reported in patent US20230340065A1 (published 2023).

T1: FBXO24 peptide on HLA-A*24:02 (human)
T1 peptide: DYVGTLFFL

T2: XXYLT1 peptide on HLA-A*24:02 (human)
T2 peptide: YYSDSIFFL

T3: GTPBP6 peptide on HLA-A*24:02 (human)
T3 peptide: LYVDTIGFL

T4: KCNK12 peptide on HLA-A*24:02 (human)
T4 peptide: DYVDSLYFC

T5: CATSPERB peptide on HLA-A*24:02 (human)
T5 peptide: LYYDHLGFL

T6: PRAME peptide on HLA-A*24:02 (human)
T6 peptide: LYVDSLFFL

T7: PRAME peptide on HLA-A*02:17 (human)
T7 peptide: LYVDSLFFL


Columns and labels:
[1] = biological target: T1, FBXO24 peptide on HLA-A*24:02; assay: cytokine release
[2] = biological target: T2, XXYLT1 peptide on HLA-A*24:02; assay: cytokine release
[3] = biological target: T3, GTPBP6 peptide on HLA-A*24:02; assay: cytokine release
[4] = biological target: T4, KCNK12 peptide on HLA-A*24:02; assay: cytokine release
[5] = biological target: T5, CATSPERB peptide on HLA-A*24:02; assay: cytokine release
[6] = biological target: T6, PRAME peptide on HLA-A*24:02; assay: multimer staining
[7] = biological target: T7, PRAME peptide on HLA-A*02:17; assay: cytokine release

| binding result [1] | binding result [2] | binding result [3] | binding result [4] | binding result [5] | binding result [6] | binding result [7] | Binder |
| --- | --- | --- | --- | --- | --- | --- | --- |
| no recognition | recognises | recognises | recognises | recognises | recognises |  | TCR T402-93 (TCR, V domains shown) Valpha: GQQVMQIPQYQHVQEGEDFTTYCNSSTTLSNIQWYKQRPGGHPVFLIQLVKSGEVKKQKRLTFQFGEAKKNSSLHITATQTTDVGTYFCAGALPRAGSYQLTFGKGTKLSVIP Vbeta: SQTIHQWPATLVQPVGSPLSLECTVEGTSNPNLYWYRQAAGRGLQLLFYSVGIGQISSEVPQNLSASRPQDRQFILSSKKLLLSDSGFYLCAWSLGAGYTDTQYFGPGTRLTVL |
| recognises | no recognition | no recognition | no recognition | no recognition | recognises | recognises | TCR T116-49 (TCR, V domains shown) Valpha: QQPVQSPQAVILREGEDAVINCSSSKALYSVHWYRQKHGEAPVFLMILLKGGEQKGHEKISASFNEKKQQSSLYLTASQLSYSGTYFCGTANSGGSNYKLTFGKGTLLTVNP Vbeta: DAGITQSPRHKVTETGTPVTLRCHQTENHRYMYWYRQDPGHGLRLIHYSYGVKDTDKGEVSDGYSVSRSKTEDFLLTLESATSSQTSVYFCAISDYEGTEAFFGQGTRLTVV |
